From US20170137512A1 (Ablynx, published 2017) come the findings set out here.

Like-named read-outs stand apart in the source and are kept apart here.

Assay [1] deals with T1, rat Kv1.3 (Rattus norvegicus, UniProt P15384 1-525).
T1 construct: Expressed on CHO cells
The assay is described as follows: FACS, CHO cells expressing rat Kv1.3. (Flow cytometry measures light scatter and fluorescence of single cells or particles in a stream.)

Assay [2] deals with T2, human Kv1.3 (Homo sapiens, UniProt P22001 1-575).
T2 construct: also called huKv1.3; hKv1.3
T2 sequence (P22001 whole entry): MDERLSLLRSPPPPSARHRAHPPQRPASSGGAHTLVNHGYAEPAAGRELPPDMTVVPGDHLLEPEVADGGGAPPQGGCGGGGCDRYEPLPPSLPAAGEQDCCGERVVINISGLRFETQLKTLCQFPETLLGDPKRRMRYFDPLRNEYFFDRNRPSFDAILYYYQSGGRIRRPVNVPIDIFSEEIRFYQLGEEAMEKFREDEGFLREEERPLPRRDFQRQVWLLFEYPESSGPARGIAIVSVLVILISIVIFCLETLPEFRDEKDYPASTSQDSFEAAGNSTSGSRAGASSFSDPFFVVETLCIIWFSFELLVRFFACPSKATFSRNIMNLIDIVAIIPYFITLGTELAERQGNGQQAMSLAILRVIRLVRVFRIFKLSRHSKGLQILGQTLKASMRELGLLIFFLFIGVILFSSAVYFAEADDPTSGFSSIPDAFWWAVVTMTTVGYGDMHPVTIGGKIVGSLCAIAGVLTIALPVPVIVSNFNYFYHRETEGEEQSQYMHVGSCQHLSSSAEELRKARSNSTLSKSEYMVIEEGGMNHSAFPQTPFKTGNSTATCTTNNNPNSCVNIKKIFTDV
Nature of the assay: FACS, CHO cells expressing human Kv1.3.

Assay [3] concerns the target T2, human Kv1.3.
Assay [4] addresses T3, cyno Kv1.3 (Macaca fascicularis, UniProt P22001 1-575 (human entry)).
T3 construct: Expressed on CHO cells; also called cyKv1.3; cynomolgus Kv1.3
T3 chain: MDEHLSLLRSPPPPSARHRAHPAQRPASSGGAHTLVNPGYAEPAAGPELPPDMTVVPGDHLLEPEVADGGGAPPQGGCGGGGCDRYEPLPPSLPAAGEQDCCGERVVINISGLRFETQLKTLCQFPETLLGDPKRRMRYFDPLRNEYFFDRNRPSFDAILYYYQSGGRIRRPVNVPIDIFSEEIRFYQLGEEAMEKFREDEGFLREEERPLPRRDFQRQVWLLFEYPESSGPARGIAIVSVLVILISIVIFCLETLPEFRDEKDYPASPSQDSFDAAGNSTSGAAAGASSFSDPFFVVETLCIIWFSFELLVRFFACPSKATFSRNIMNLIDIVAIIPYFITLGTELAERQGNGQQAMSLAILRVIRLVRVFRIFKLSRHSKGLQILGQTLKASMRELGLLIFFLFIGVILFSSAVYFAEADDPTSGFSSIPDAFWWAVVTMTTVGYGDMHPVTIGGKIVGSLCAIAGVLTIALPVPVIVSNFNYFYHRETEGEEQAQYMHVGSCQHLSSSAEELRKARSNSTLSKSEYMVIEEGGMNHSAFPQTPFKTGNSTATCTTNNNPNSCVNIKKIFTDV
The assay is described as follows: FACS, CHO cells expressing cyno Kv1.3.

The target in assay [5] is T3, cyno Kv1.3.
Assay [6] has as its target T2, human Kv1.3. The assay is described as follows: cell-based or functional assay.
Assay [7] concerns the target T3, cyno Kv1.3.
The target in assay [8] is T2, human Kv1.3. Nature of the assay: cell-based or functional assay. The source holds these as a separate data set.
The target in assay [9] is T2, human Kv1.3. The assay is described as follows: cell-based or functional assay. The source holds these as a separate data set.
The target in assay [10] is T2, human Kv1.3. Nature of the assay: cell-based or functional assay. The source holds these as a separate data set.
The target in assay [11] is T2, human Kv1.3. The assay is described as follows: cell-based or functional assay. This is another data set of the same source.
For assay [12], the target named is T2, human Kv1.3. The assay is described as follows: cell-based or functional assay. The source holds these as a separate data set.
In assay [13] the target is T1, rat Kv1.3. The assay is described as follows: FACS, CHO cells expressing rat Kv1.3. This is another data set of the same source.
Assay [14] addresses T3, cyno Kv1.3. Nature of the assay: FACS, CHO cells expressing cyno Kv1.3.
The target of assay [15] is T2, human Kv1.3. Nature of the assay: FACS, CHO cells expressing human Kv1.3. This is another data set of the same source.
The target of assay [16] is T2, human Kv1.3. Nature of the assay: cell-based or functional assay. This is another data set of the same source.

B1: A019400003 (VHH)
VHH: EVQLVESGGGLVQAGGSLSLSCTASGGTFRNFGMGWFRQAQGKEREFVAAISRTGGHTYYQDSVKGRFTISKDNAKNILSLQMNSLKPEDTAVYYCAARFRFGDGTYYYQRAFYDFWGQGTQVTVSS
notes: Monovalent Nanobody of family 1, purified from E. coli TG1; not shown: triple Flag, His6 tag
A word on the EC50: it is the concentration that produces a half-maximal response. What is called IC50 is the point on the concentration scale where inhibition reaches its midpoint. Turning to B1, the results for the 50% effective concentration (EC50) with rat Kv1.3 [1], in the assay with human Kv1.3 [2] and with cyno Kv1.3 [4] were 380 nM, 6.2 nM and 2.5 nM, respectively. The “IC50 (read off the curve)” value with human Kv1.3 [3] was approximately 30 nM. This molecule gave an IC50 with cyno Kv1.3 [5] of 1.3 nM. In addition, the “Average IC50, Kv1.3 current, IonWorks perforated patch clamp, CHL cells” value (“Average IC50, Kv1.3 current … CHL cells” for short) in the assay with human Kv1.3 [6] was more than 1000 nM.

B2: A019400032 (VHH)
chain: DVQLVESGGGLVQAGGSLGLSCSASGLLFSRNSAGWYRQAPGKRREFVARIRMGGSINYADSVKGRFTVSRDNAKNMMYLQMNDLKPEDTAVYFCSGWREGFYEYWGQGTLVTVSSGGGGSGGGGSGGGGSGGGGSGGGGSGGGGSGGGGSEVQLVESGGGLVQAGGSLGLSCSASGLLFSRNSAGWYRQAPGKRREFVARIRMGGSINYADSVKGRFTVSRDNAKNMMYLQMNDLKPEDTAVYFCSGWREGFYEYWGQGTLVTVSS
For the molecule B2, in the assay with cyno Kv1.3 [7], half-maximal inhibition (IC50) required 0.56 nM. Also, in the assay with human Kv1.3 [8], the “IC50, CD25 read out, T cell activation assay” value worked out at 0.12 nM; the “IC50, CD25 read out, T cell activation assay, with 10 µM HSA” value was 0.33 nM; the “IC50, IFNγ read out, T cell activation assay” value worked out at 0.069 nM; the “IC50, IFNγ read out, T cell activation assay, with 10 µM HSA” value is 0.086 nM. For the same molecule, in the assay with human Kv1.3 [9], the “IC50, CD25 read out, CCR7-CD45RA- T cells stimulated with anti-CD3” value (shortened to “IC50, CD25 read out … with anti-CD3”) was 0.12 nM and the “IC50, IFNγ read out, CCR7-CD45RA- T cells stimulated with anti-CD3” value (shortened to “IC50, IFNγ read out … with anti-CD3”) is 0.069 nM. The “Average IC50, Kv1.3 current … CHL cells” value with human Kv1.3 [10] was found to be 1.2 nM.

B3: A0194009G09 (VHH)
VHH: EVQLVESGGGLVQAGGSLGLSCSASGLLFSRNSAGWYRQAPGKQREFVARIRMGGSINYADTVKGRFTISRDNAKNTVYLQMNSLKPEDTAVYYCSSWRTGFYEYWGQGTLVTVSS
notes: Monovalent Nanobody of family 12; not shown: triple Flag, His6 tag
B3: in the assay with human Kv1.3 [11], the “IC50, CD25 read out … with anti-CD3” value was 62 nM. Moreover, the “IC50, IFNγ read out … with anti-CD3” value with human Kv1.3 [11] was determined as 47 nM. The results for the EC50 in the assay with rat Kv1.3 [1], in the assay with human Kv1.3 [2] and with cyno Kv1.3 [4] were 240 nM, 7.9 nM and 11 nM, respectively. Further, the “Average IC50, Kv1.3 current, IonFlux automated patch clamp, HEK293H cells” value (shortened to “Average IC50, Kv1.3 current … HEK293H cells”) in the assay with human Kv1.3 [12] came out at 8.2 nM. The “IC50 (read off the curve)” value in the assay with human Kv1.3 [3] is approximately 10 nM. Further, the IC50 with cyno Kv1.3 [5] is 9.8 nM. Moreover, the “Average IC50, Kv1.3 current … CHL cells” value with human Kv1.3 [6] was 37 nM.

B4: A019400004 (other)
chain: EVQLVESGGGLVQAGGSLSLSCTASGGTFRNFGMGWFRQAQGKEREFVAAISRTGGHTYYQDSVKGRFTISKDNAKNILSLQMNSLKPEDTAVYYCAARFRFGDGTYYYQRAFYDFWGQGTQVTVSSGGGGSGGGGSGGGGSGGGGSGGGGSGGGGSGGGGSGGGGSEVQLVESGGGLVQAGGSLSLSCTASGGTFRNFGMGWFRQAQGKEREFVAAISRTGGHTYYQDSVKGRFTISKDNAKNILSLQMNSLKPEDTAVYYCAARFRFGDGTYYYQRAFYDFWGQGTQVTVSS
notes: Bivalent Nanobody construct (family 1 - family 1), expressed in Pichia; also called A019400003-40GS-A019400003
Regarding B4, the concentration giving a half-maximal response (EC50) in the assay with rat Kv1.3 [13] stood at 1.1 nM; with cyno Kv1.3 [14], 0.44 nM; with human Kv1.3 [15] it was 2.2 nM. In the assay with cyno Kv1.3 [7], this molecule displayed a half-maximal inhibitory concentration (IC50) of 0.64 nM. Also, in the assay with human Kv1.3 [10], the “Average IC50, Kv1.3 current … CHL cells” value was more than 1000 nM.

B5: A019400014 (other)
chain: EVQLVESGGGLVQAGGSLSLSCTASGGTFRNFGMGWFRQAQGKEREFVAAISRTGGHTYYQDSVKGRFTISKDNAKNILSLQMNSLKPEDTAVYYCAARFRFGDGTYYYQRAFYDFWGQGTLVTVSSGGGGSGGGGSGGGGSGGGGSGGGGSGGGGSGGGGSEVQLVESGGGLVQAGGSLGLSCSASGLLFSRNSAGWYRQAPGKQREFVARIRMGGSINYADTVKGRFTISRDNAKNTVYLQMNSLKPEDTAVYYCSSWRTGFYEYWGQGTLVTVSS
notes: Biparatopic Nanobody construct (family 1 - family 12); also called A019400003-35GS-A0194009G09; A019400011
B5: the “Average IC50, Kv1.3 current … HEK293H cells” value in the assay with human Kv1.3 [16] amounted to 14 nM. In addition, the concentration giving a half-maximal response (EC50) with rat Kv1.3 [13] came out at 0.74 nM; with cyno Kv1.3 [14] it was 0.41 nM; in the assay with human Kv1.3 [15], 1.1 nM. The half-inhibitory concentration (IC50) with cyno Kv1.3 [7] came out at 0.61 nM. Further, in the assay with human Kv1.3 [9], the “IC50, CD25 read out … with anti-CD3” value amounted to 0.11 nM. For the same molecule, the “IC50, IFNγ read out … with anti-CD3” value in the assay with human Kv1.3 [9] amounted to 0.32 nM. In addition, the “Average IC50, Kv1.3 current … CHL cells” value in the assay with human Kv1.3 [10] is 14 nM.

B6: A019400015 (VHH)
chain: EVQLVESGGGLVQAGGSLGLSCSASGLLFSRNSAGWYRQAPGKQREFVARIRMGGSINYADTVKGRFTISRDNAKNTVYLQMNSLKPEDTAVYYCSSWRTGFYEYWGQGTLVTVSSGGGGSGGGGSGGGGSGGGGSGGGGSGGGGSGGGGSEVQLVESGGGLVQAGGSLGLSCSASGLLFSRNSAGWYRQAPGKQREFVARIRMGGSINYADTVKGRFTISRDNAKNTVYLQMNSLKPEDTAVYYCSSWRTGFYEYWGQGTLVTVSSGGGGSGGGGSGGGGSGGGGSGGGGSGGGGSGGGGSEVQLVESGGGLVQAGGSLGLSCSASGLLFSRNSAGWYRQAPGKQREFVARIRMGGSINYADTVKGRFTISRDNAKNTVYLQMNSLKPEDTAVYYCSSWRTGFYEYWGQGTLVTVSS
notes: Trivalent Nanobody construct (family 12); also called A0194009G09-35GS-A0194009G09-35GS-A0194009G09
As to B6, the concentration giving a half-maximal response (EC50) is 0.44 nM with rat Kv1.3 [13], 0.31 nM in the assay with cyno Kv1.3 [14] and 0.66 nM with human Kv1.3 [15]. In the assay with cyno Kv1.3 [7], this molecule had a concentration for half-maximal inhibition (IC50) of 0.2 nM. In the assay with human Kv1.3 [9], the “IC50, CD25 read out … with anti-CD3” value was found to be 0.059 nM. For the same molecule, the “IC50, IFNγ read out … with anti-CD3” value with human Kv1.3 [9] was 0.032 nM. In addition, the “Average IC50, Kv1.3 current … CHL cells” value in the assay with human Kv1.3 [10] was determined as 0.8 nM.

B7: A019400012 (other)
chain: EVQLVESGGGLVQAGGSLGLSCSASGLLFSRNSAGWYRQAPGKQREFVARIRMGGSINYADTVKGRFTISRDNAKNTVYLQMNSLKPEDTAVYYCSSWRTGFYEYWGQGTLVTVSSGGGGSGGGGSGGGGSGGGGSGGGGSGGGGSGGGGSEVQLVESGGGLVQAGGSLSLSCTASGGTFRNFGMGWFRQAQGKEREFVAAISRTGGHTYYQDSVKGRFTISKDNAKNILSLQMNSLKPEDTAVYYCAARFRFGDGTYYYQRAFYDFWGQGTLVTVSS
On to B7, for which the “Average IC50, Kv1.3 current … HEK293H cells” value in the assay with human Kv1.3 [16] is 4.2 nM. This molecule also showed a half-inhibitory concentration (IC50) with cyno Kv1.3 [7] of 0.5 nM. In the assay with human Kv1.3 [9], the “IC50, CD25 read out … with anti-CD3” value is 0.31 nM and the “IC50, IFNγ read out … with anti-CD3” value worked out at 0.31 nM. In the assay with human Kv1.3 [10], the “Average IC50, Kv1.3 current … CHL cells” value was 4.2 nM.

B8: A019400009 (VHH)
chain: EVQLVESGGGLVQAGGSLGLSCSASGLLFSRNSAGWYRQAPGKQREFVARIRMGGSINYADTVKGRFTISRDNAKNTVYLQMNSLKPEDTAVYYCSSWRTGFYEYWGQGTLVTVSSGGGGSGGGGSGGGGSGGGGSGGGGSGGGGSGGGGSEVQLVESGGGLVQAGGSLGLSCSASGLLFSRNSAGWYRQAPGKQREFVARIRMGGSINYADTVKGRFTISRDNAKNTVYLQMNSLKPEDTAVYYCSSWRTGFYEYWGQGTLVTVSS
As to B8, the “Average IC50, Kv1.3 current … HEK293H cells” value in the assay with human Kv1.3 [16] was 0.73 nM. Besides, the “Average IC50, Kv1.3 current … CHL cells” value in the assay with human Kv1.3 [10] came out at 0.81 nM.
